# Assay results reported in the supplement of paper PMC9170038.
# Tested on: MS2 coat protein
# Test: apparent KD of MS2 coat protein; designed switch direction (-1 OFF switch, 1 ON switch): 1; higher = weaker reporter binding
# Procedure, shortened: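 RNA switches sharing common flanks were transcribed by stalled E. coli RNA polymerase on Illumina chips. A doubling series of SNAP-549-labelled MS2 coat protein, from 0.7 or 1.5 nM to 3 µM, was applied in Tris-HCl pH 7.5 buffer with KCl, MgCl2, BSA, DTT, tRNA and Tween-20. Each step lasted 0.8–1.5 h at the bottom of the series and 10–20 min at the top. Normalised cluster fluorescence was curve-fitted, giving apparent KD as the per-design median over clusters.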
# [1] = input ligand: microRNA oligo, concentration not stated
# [2] = Eterna round: R95, input ligand: FMN 200 uM
# [3] = Eterna round: R95, input ligand: microRNA oligo, concentration not stated
# [4] = Eterna round: R95, input ligand: none
Sequence,apparent KD of MS2 coat protein (input ligand: FMN 200 uM) [nM],apparent KD of MS2 coat protein [1] [nM],apparent KD of MS2 coat protein (input ligand: none) [nM],apparent KD of MS2 coat protein [2] [nM],apparent KD of MS2 coat protein [3] [nM],apparent KD of MS2 coat protein [4] [nM]
"CUUCGGAAGCGAGGAUAUGCAGAGGAUCACCCUGCAGAAGGCGCAAAAGCGAGGAUAUGCAGAGGAUCACCCUGCAGAAGGCGC [pwkr ssNG DX.34] (Eterna round: R96, puzzle: Same State NG 1)",43,15.7,32.4,–,–,–
"AUAGUGUACGCAGGAUAUCGAUGAGGAACAUGAGGAUCACCCAUGUUGUGAGGAUCACCCAUGUAUGAGAAGGGCGACCCAUGU [Same State NG2 S1] (Eterna round: R96, puzzle: Same State NG 2)",148,46,57.7,–,–,–
"GUGGUCAGACAUGAGGAUCACCCAUGUGGAAUAAAUAAGGUCAAGGAUAUGGAAUAUAGGAUAUACCAGAAGGUGAGGUUGGUG (Eterna round: R96, puzzle: Same State NG 3)",245,167,225,–,–,–
AAAGCACAUGAGGAUCACCCAUGUGGAAAUAACACAGGAUAUCCGGCCGAAAAUACGGUGGGAGAAGGGUGACCUA [Inxetemama] (puzzle: Same State 1),–,–,–,302,60.4,86.7
"UGAAUAGUGAUAGGAUAUACAUGAGGAAUCCUCGUAGAAGGAUCACGACAUGAGGAUCACCCAUGUAGCCGUCAGAAGACGGCA [Mat - Same State NG 1 - JL mod - D60] (Eterna round: R96, puzzle: Same State NG 1)",450,345,2610,–,–,–
"CCCAGCGUUACAGGAUAUGGUGAGGAUCACCCACUAGAAGGGUAAACAUGUGCGUCGGACAUGAGGAUCACCCAUGUAGGGCGU (Eterna round: R96, puzzle: Same State NG 1)",20.6,17.9,27,–,–,–
"AAGAAAUCCGCAGGAUAUCCUAAGCCGGACUUAGGAGAAGGGUGGCCACAUGAGGAUCACCCAUGUAAAAGCUGAAUCACAGCC [Vetianeste] (Eterna round: R96, puzzle: Same State NG 1)",554,385,497,–,–,–
"GUAAUCGUUAUAGGAUAUCAUGAGGAUUACCCAUGAGAAGGGUGAUUCCGAUCCAUAUUCAGAAAAUGAAUGUGGAUAGAUUGC [Omei NG1 A v1] (Eterna round: R96, puzzle: Same State NG 1)",123,117,260,–,–,–
GUAAUACAUGAGGAUCACCCAUGUCAAUGUAGUCGAGGAUAUGGGUAGCUAUGAGGCGUUCUAGAAGGCGACGAGC [Same State 1 - Mod of Vinnie Teenbexe v.3] (puzzle: Same State 1),–,–,–,273,151,52.2
AGUCCAGCCUGAGCUGGACAAAAGCAUGUACAUGAGGAUCACCCAUGUCAUGUACAAGCUUUUUGCUCAUCUUAAAA [Mat - hsa-mir-208a - Mod of JL - D11] (puzzle: Sensor for hsa-mir-208a),–,–,–,624,16.4,922
"ACAUGAGGAUCACCCAUGUAACACCUGAAAAUAAAACGAACACAGGAUAUCCCAGCAUGACGCCGGGAGAAGGGUGAUCGAAGA [Quorer] (Eterna round: R96, puzzle: Same State NG 3)",124,118,52.8,–,–,–
"GCUCGCACGAUGACCCACAUGAGGAUCACCCAUGUGUGUGGGUAGGAUAUCUAUAUUAAGGAUUUAGAGAAGGGCCGAGCGAGC [SameState NG3 #22] (Eterna round: R96, puzzle: Same State NG 3)",450,419,578,–,–,–
"ACAUGAGGAUCACCCAUGUCUUUAUCCGAUUCUUCAUUUACGUAGGAUAUCGUCUAUACUAUCAUCGAGAAGGACGUUCUUUAA [JR_SSNG3_Sub070] (Eterna round: R96, puzzle: Same State NG 3)",–,13.9,–,–,–,–
"AGCUAUUAAUCAGGAUAUAGGGACAUGAGGAUCACCCAUGUGUACAUGAGUAAAUGUGAUCACGUCUAGAAGGGAUUACUAACA [SameState NG2 #38] (Eterna round: R96, puzzle: Same State NG 2)",184,92.9,133,–,–,–
"CUCACUUGGGUAGGAUAUCUAGGAUAUGGGAAAGACUAAGUCUGUAGGUCACCUAACCCAGAUGGAGAGAAGGACCCAACACUC [pwkr ssNG2 2FMN + F9.38] (Eterna round: R96, puzzle: Same State NG 2)",57.9,2.64,33.1,–,–,–
"CCAACGUACAAUUUAGAUCUACAUGAGGAUCACCCAUGUACGGAGGAUAUCAGCUCGUGUAGAGCUGAGAAGGCCGAAUUAAUU [SSNG3/2-A4] (Eterna round: R96, puzzle: Same State NG 3)",88,298,465,–,–,–

Sequence,apparent KD of MS2 coat protein (input ligand: FMN 200 uM) [nM],apparent KD of MS2 coat protein [1] [nM],apparent KD of MS2 coat protein (input ligand: none) [nM],apparent KD of MS2 coat protein [2] [nM],apparent KD of MS2 coat protein [3] [nM],apparent KD of MS2 coat protein [4] [nM]
"UCAAUCAUGUAAGGAUAUGCAGCCGAAACGGCUGCAGAAGGUACUAUAAUUACAUGAGGAUCACCCAUGUUAUAAAAUUUAUAU [Mat - Same State NG 1 - JL mod - D67] (Eterna round: R96, puzzle: Same State NG 1)",–,85,–,–,–,–
"GUGGUCAGACAUGAGGAUCACCCAUGUGGAAUAAAUAAGGAGAAGGAUAUUUAAUAUAGGAUAUAAAAGAAGGUCUGGUUGGUG (Eterna round: R96, puzzle: Same State NG 3)",99.4,55.6,92.5,–,–,–
"CUGCUCGUGUGAGGAUAUGCCGCCGUUUCGGCUGCAGAAGGUGCUACGUUACAUGAGGAUCACCCAUGUCUCUGUUGUUUCGUU [salish99_SSNG1_r04_947] (Eterna round: R96, puzzle: Same State NG 1)",20.2,19,22.8,–,–,–
"GUGGUGGGUUGAGGAUAUUGGUUGUUGUUGUUCCACAUGAGGAUCACCCAUGUGGGUUGUGGUUUUGAGAAGGUUGGUUGCUGG [salish99_SSNG2_r04_050] (Eterna round: R96, puzzle: Same State NG 2)",17.2,14.2,20.3,–,–,–
"AAAAGACAUGAGGAUCACCCAUGUGAAAACGUAGGAGGAUAUGUCGUGAAAAAAGACUUGACAGAAGGCCUGUGUC [SS1 - 34] (Eterna round: R96, puzzle: Same State 1)",–,88.9,–,–,–,–
"UCUAUUGUGGUAGGAUAUCUAGGAUAUGGGAAGAGCUAAGCUUGGAAGUCACUUCACCCAGAAGGAGAGAAGGACCAGAGACUU [pwkr ssNG2 2FMN + F9.7] (Eterna round: R96, puzzle: Same State NG 2)",1230,778,475,–,–,–
"GCCGCGUUUCACGCCUACAUGAGGAUCACCCAUGUAUGUAGGCAGGAUAUCGUUUGCUUUGCAAACGAGAAGGGCUGUAGUGGC [salish99_SSNG3_R04_007] (Eterna round: R96, puzzle: Same State NG 3)",41.7,92.3,116,–,–,–
GAAAAGGCGACGCAGGAUAUGAAAGGUGAAACAUGAGGAUCACCCAUGUGCUACCUUCCGAUAAAUCAGAAGGGCGACGCCAAGC [Soleusat] (puzzle: Same State 2),–,–,–,9.79,8.54,9.6
"GUGGUCAGACAUGAGGAUCACCCAUGUGGAAUAAAUAAGGAUCAGGAUAUGGAAUAUAGGAUAUACCAGAAGGGAUGGUUGGUG (Eterna round: R96, puzzle: Same State NG 3)",59.9,41.7,52.6,–,–,–
AAGUUACUAUCUCAGGAUAUCAUGUCAAAGACAUGAGGAUCACCCAUGUACCAGGAAACUGGUUAUGAGAAGGGAGAUAGUAACG [Mat - Same State 2 - Mod - D53] (puzzle: Same State 2),–,–,–,497,149,443
"AAUUUAAUACAUGAGGAUCACCCAUGUAAUACUAGUAAGAUCUAGGAUAUCAGCUCGUUUAGAGCUGAGAAGGAGAUCACAUGU [SSNG3/19-C3] (Eterna round: R96, puzzle: Same State NG 3)",–,62.1,–,–,–,–
"UUUAGAUCGCGAGGAUAUCGCGAGGAUCACCCGUGAGAAGGCGCAGAGCCGAGGAUCACCCGGCUGAUCCUGAGAAGGAGGUCA (Eterna round: R96, puzzle: Same State NG 1)",91.7,206,250,–,–,–
UCUUGGUUUUUGCUCGUUUUUUGUGUUGAACAUGAGGAUCACCCAUGUAUUGUACGGUCCGAUUUAAUAAUGGUCCG [JMF 22] (puzzle: Sensor for hsa-mir-208a),–,–,–,23.5,14.4,25.5
"UUCCUUCUCGUAGGAUAUGUAGGAUAUUCCUACAUGAGGAUCACCCAUGUUCGCAUGGAAGAAGGACAGAAGGACGAUCACCCU [pwkr ssNG2 2FMN + 1F5.11] (Eterna round: R96, puzzle: Same State NG 2)",91.3,74.3,98.5,–,–,–
AUGCAGCCACCACAGGAUAUACGUGGAUCGACAUGAGGAUCACCCAUGUAUAUCCUAAUAAUUGCGUAGAAGGGUGGUCGGCUGG [Anatxeage] (puzzle: Same State 2),–,–,–,–,362,–
GAGAGAGGAAGCGAGGAUAUCGUGUUGAGUACAUGAGGAUCACCCAUGUUGUAGGUAGAGGUAGGCGAGAAGGCGCAGGAGAAGA [JR_SS2_Sub0100] (puzzle: Same State 2),–,–,–,50.2,39.3,41
